Patent publication US20230124851A1 (INHIBRX LNC, published 2023)

T1: human B7H3 (CD276) on the cell surface (human, UniProt Q5ZPR3 29-534)
T1 construct: B7H3 on A375 and other B7H3-positive or transfected cells
T1 sequence: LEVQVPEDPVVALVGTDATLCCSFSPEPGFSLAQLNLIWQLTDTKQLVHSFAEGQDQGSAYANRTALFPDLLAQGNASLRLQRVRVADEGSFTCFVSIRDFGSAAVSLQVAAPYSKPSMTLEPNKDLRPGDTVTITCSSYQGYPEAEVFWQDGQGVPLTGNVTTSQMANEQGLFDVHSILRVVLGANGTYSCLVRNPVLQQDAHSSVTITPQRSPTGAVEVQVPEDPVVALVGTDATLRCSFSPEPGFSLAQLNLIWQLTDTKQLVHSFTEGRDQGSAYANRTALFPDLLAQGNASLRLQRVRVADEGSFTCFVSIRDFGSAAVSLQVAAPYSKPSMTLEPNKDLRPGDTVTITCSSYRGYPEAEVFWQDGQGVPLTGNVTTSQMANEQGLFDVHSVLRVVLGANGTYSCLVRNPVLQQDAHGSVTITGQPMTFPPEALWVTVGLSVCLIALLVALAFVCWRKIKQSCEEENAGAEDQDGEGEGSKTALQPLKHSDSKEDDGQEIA


What was measured:
[1] = target: T1, human B7H3 (CD276) on the cell surface; experiment: flow cytometry on A375 cells (B7H3+), anti-human Fc secondary
Method: (§1) Binding of exemplary multispecific constructs containing an antigen-binding domain directed against B7H3 were assessed for binding to B7H3 positive A375 tumor cells or primary T-cells. The constructs were generated containing antigen-binding domain(s) that were either sdAbs or a FABs, and that were positioned either only N-terminal to the Fc or both N-terminal to the Fc and C-terminal to the anti-CD3 binding domain (see FIGS. 30A and 30C and Table E5). Among the various formats of constructs tested included: sdAb-Fc-dsFV-sdAb (cx3072, cx5952) sdAb-Fc-FV (cx6079), sdAb-Fc-dsFV (cs6080, cx6081), MAB-FV (cx5067) and MAB-dsFV (cx6083, cx6084), where the FV represents the anti-CD3 binding domain composed of VH and VL domain pairs and “ds” notes disulfide stabilized via an engineered interdomain disulfide bond.
(§2) Binding was assessed as described above via flow cytometry using a fluorophore-conjugated anti-human Fc secondary antibody. cx3072 bound to A375 cells with high affinity (FIG. 31A) but not to isolated T-cells (FIG. 31B). […] The B7H3 -targeting sdAb containing constructs (cx5952, cx6079, cx6080, and cx6081) bound to B7H3 positive cells with similar affinities (depicted in FIG. 31E), with cx5952 displaying higher maximal binding. cx6079, cx6080 and cx6081 contain two identical B7H3-targeting sdAbs, whereas cx5952, and cx3072 contain two distinct B7H3-targeting sdAb that bind different epitopes. The MAB-FV, cx5067, contains two identical B7H3-targeting FAB domains.

[2] = target: T2, CD3 on the surface of human T cells (human, UniProt P07766 23-207); experiment: flow cytometry on primary human T cells, anti-human Fc secondary
T2 construct: whole, on cells; Part of the CD3/TCR complex on cells; also called CD3 epsilon
Method: as §1, §2

[3] = target: T2, CD3 on the surface of human T cells; experiment: flow cytometry on isolated T cells, anti-human Fc secondary
Method: as §1, §2

T2 sequence (P07766 23-207): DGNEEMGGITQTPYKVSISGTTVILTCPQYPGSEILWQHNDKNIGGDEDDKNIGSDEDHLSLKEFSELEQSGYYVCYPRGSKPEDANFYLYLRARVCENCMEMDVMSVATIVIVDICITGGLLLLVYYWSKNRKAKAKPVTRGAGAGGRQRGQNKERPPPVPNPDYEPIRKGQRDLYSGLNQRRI

Row | Binder | binding result [1] | binding result [2] | binding result [3]
1 | cx6083 (bispecific antibody, disulfide-stabilized anti-CD3 Fv; also called MAB-dsFV) chain 1: EVQLVESGGGLVQPGGSLRLSCAASGFTFSSFGMHWVRQAPGKGLEWVAYISSDSSAIYYADTVKGRFTISRDNAKNSLYLQMNSLRDEDTAVYYCGRGRENIYYGSRLDYWGQGTTVTVSSASTKGPSVFPLAPSSKSTSGGTAALGCLVKDYFPEPVTVSWNSGALTSGVHTFPAVLQSSGLYSLSSVVTVPSSSLGTQTYICNVNHKPSNTKVDKKVEPKSCDKTHTCPPCPAPPVAGPSVFLFPPKPKDTLMISRTPEVTCVVVDVKHEDPEVKFNWYVDGVEVHNAKTKPREEEYNSTYRVVSVLTVLHQDWLNGKEYKCKVSNKALPAPIEKTISKAKGQPREPQVYTLPPSREEMTKNQVSLTCDVSGFYPSDIAVEWESDGQPENNYKTTPPVLDSDGSFFLYSKLTVDKSRWEQGDVFSCSVMHEALHNHYTQKSLSLSPGKGGGGSGGGGSGGGGSEVQLVESGGGLVQPGGSLRLSCAASGFTFSTYAMNWVRQAPGKCLEWVGRIRSKYNNYATYYADSVKGRFTISRDDSKNTLYLQMNSLRAEDTAVYYCVRHGNFGDSYVSWFAYWGQGTLVTVSS chain 2: EVQLVESGGGLVQPGGSLRLSCAASGFTFSSFGMHWVRQAPGKGLEWVAYISSDSSAIYYADTVKGRFTISRDNAKNSLYLQMNSLRDEDTAVYYCGRGRENIYYGSRLDYWGQGTTVTVSSASTKGPSVFPLAPSSKSTSGGTAALGCLVKDYFPEPVTVSWNSGALTSGVHTFPAVLQSSGLYSLSSVVTVPSSSLGTQTYICNVNHKPSNTKVDKKVEPKSCDKTHTCPPCPAPPVAGPSVFLFPPKPKDTLMISRTPEVTCVVVDVKHEDPEVKFNWYVDGVEVHNAKTKPREEQYNSTYRVVSVLTVLHQDWLNGKEYKCKVSNKALPAPIEKTISKAKGQPREPQVYTLPPSREQMTKNQVKLTCLVKGFYPSDIAVEWESNGQPENNYKTTPPVLDSDGSFFLYSKLTVDKSRWQQGNVFSCSVMHEALHNHYTQKSLSLSPGKGGGGSGGGGSGGGGSQAVVTQEPSLTVSPGGTVTLTCGSSTGAVTTSNYANWVQQKPGKSPRGLIGGTNKRAPGVPARFSGSLLGGKAALTISGAQPEDEADYYCALWYSNHWVFGCGTKLTVL light: DIQLTQSPSFLSASVGDRVTITCKASQNVDTNVAWYQQKPGKAPKALIYSASYRYSGVPSRFSGSGSGTDFTLTISSLQPEDFATYYCQQYNNYPFTFGQGTKLEIKRTVAAPSVFIFPPSDEQLKSGTASVVCLLNNFYPREAKVQWKVDNALQSGNSQESVTEQDSKDSTYSLSSTLTLSKADYEKHKVYACEVTHQGLSSPVTKSFNRGEC | binds | no binding | –
2 | cx6084 (bispecific antibody, human IgG1, kappa, disulfide-stabilized anti-CD3 Fv; also called MAB-dsFV) chain 1: EVQLVESGGGLVQPGGSLRLSCAASGFTFSSFGMHWVRQAPGKGLEWVAYISSDSSAIYYADTVKGRFTISRDNAKNSLYLQMNSLRDEDTAVYYCGRGRENIYYGSRLDYWGQGTTVTVSSASTKGPSVFPLAPSSKSTSGGTAALGCLVKDYFPEPVTVSWNSGALTSGVHTFPAVLQSSGLYSLSSVVTVPSSSLGTQTYICNVNHKPSNTKVDKKVEPKSCDKTHTCPPCPAPPVAGPSVFLFPPKPKDTLMISRTPEVTCVVVDVKHEDPEVKFNWYVDGVEVHNAKTKPREEEYNSTYRVVSVLTVLHQDWLNGKEYKCKVSNKALPAPIEKTISKAKGQPREPQVYTLPPSREEMTKNQVSLTCDVSGFYPSDIAVEWESDGQPENNYKTTPPVLDSDGSFFLYSKLTVDKSRWEQGDVFSCSVMHEALHNHYTQKSLSLSPGKGGGGSGGGGSGGGGSEVQLVESGGGLVQPGGSLRLSCAASGFTFNTYAMNWVRQAPGKCLEWVARIRSKYNNYATYYADSVKGRFTISRDDAKNTLYLQMSSLRAEDTAVYYCVRHGNFGNSYVSWFAYWGQGTLVTVKP chain 2: EVQLVESGGGLVQPGGSLRLSCAASGFTFSSFGMHWVRQAPGKGLEWVAYISSDSSAIYYADTVKGRFTISRDNAKNSLYLQMNSLRDEDTAVYYCGRGRENIYYGSRLDYWGQGTTVTVSSASTKGPSVFPLAPSSKSTSGGTAALGCLVKDYFPEPVTVSWNSGALTSGVHTFPAVLQSSGLYSLSSVVTVPSSSLGTQTYICNVNHKPSNTKVDKKVEPKSCDKTHTCPPCPAPPVAGPSVFLFPPKPKDTLMISRTPEVTCVVVDVKHEDPEVKFNWYVDGVEVHNAKTKPREEQYNSTYRVVSVLTVLHQDWLNGKEYKCKVSNKALPAPIEKTISKAKGQPREPQVYTLPPSREQMTKNQVKLTCLVKGFYPSDIAVEWESNGQPENNYKTTPPVLDSDGSFFLYSKLTVDKSRWQQGNVFSCSVMHEALHNHYTQKSLSLSPGKGGGGSGGGGSGGGGSQAVVTQEPSLTVSPGGTVTLTCGSSTGAVTTSNYANWVQQKPGQAFRGLIGGTNKRAPGVPARFSGSLLGGKAALTISGAQPEDEADYYCALWYSNHWVFGCGTKLEIK light: DIQLTQSPSFLSASVGDRVTITCKASQNVDTNVAWYQQKPGKAPKALIYSASYRYSGVPSRFSGSGSGTDFTLTISSLQPEDFATYYCQQYNNYPFTFGQGTKLEIKRTVAAPSVFIFPPSDEQLKSGTASVVCLLNNFYPREAKVQWKVDNALQSGNSQESVTEQDSKDSTYSLSSTLTLSKADYEKHKVYACEVTHQGLSSPVTKSFNRGEC | binds | no binding | –
3 | cx5187 (bispecific antibody) chain 1: EVQLVESGGGEVQPGGSLRLSCAASGFSFSSNVMMWVRQAPGKGLEWVSTIYSSGTGTFYAESVKGRFTISRDNAKNTLYLQMSSLRPEDTAVYYCATSGPVRGWGPRSQGTLVTVKPPGGGGDKTHTCPPCPAPGGPSVFLFPPKPKDTLMISRTPEVTCVVVDVSHEDPEVKFNWYVDGVEVHNAKTKPREEQYNSTYRVVSVLTVLHQDWLNGKEYKCKVSNKALPAPIEKTISKAKGQPREPQVYTLPPCRDELTKNQVSLWCLVKGFYPSDIAVEWESNGQPENNYKTTPPVLDSDGSFFLYSKLTVDKSRWQQGNVFSCSVMHEALHNHYTQKSLSLSPTGGGGGSGGGGGSGGGGGSEVQLVESGGGLVQPGGSLRLSCAASGFTFNTYAMNWVRQAPGKCLEWVARIRSKYNNYATYYADSVKGRFTISRDDAKNTLYLQMSSLRAEDTAVYYCVRHGNFGNSYVSWFAYWGQGTLVTVKPGGGGEVQLVESGGGEVQPGGSLRLSCAASGFTFSSYHMSWFRQAPGKQREPVATSHHGGTTNYAGSVKGRFTISRDNAKNTVYLQMNTLRAEDTAVYYCKADHGYQGRGYWGQGTLVTVKP chain 2: DKTHTCPPCPAPGGPSVFLFPPKPKDTLMISRTPEVTCVVVDVSHEDPEVKFNWYVDGVEVHNAKTKPREEQYNSTYRVVSVLTVLHQDWLNGKEYKCKVSNKALPAPIEKTISKAKGQPREPQVCTLPPSRDELTKNQVSLSCAVKGFYPSDIAVEWESNGQPENNYKTTPPVLDSDGSFFLVSKLTVDKSRWQQGNVFSCSVMHEALHNRYTQKSLSLSPTGGGGGSGGGGGSGGGGGSQAVVTQEPSLTVSPGGTVTLTCGSSTGAVTTSNYANWVQQKPGQAFRGLIGGTNKRAPGVPARFSGSLLGGKAALTISGAQPEDEADYYCALWYSNHWVFGCGTKLEIKGGGGEVQLLESGGGEVQPGGSLRLSCAASGFSFSINAMGWYRQAPGKRREFVAAIESGRNTVYAESVKGRFTISRDNAKNTVYLQMSSLRAEDTAVYYCGLLKGNRVVSPSVAYWGQGTLVTVKP | binds | – | no binding
4 | cx5823 (bispecific antibody) chain 1: EVQLVESGGGEVQPGGSLRLSCAASGFSFSSNVMMWVRQAPGKGLEWVSTIYSSGTGTFYAESVKGRFTISRDNAKNTLYLQMSSLRPEDTAVYYCATSGPVRGWGPRSQGTLVTVKPPGGGGDKTHTCPPCPAPGGPSVFLFPPKPKDTLMISRTPEVTCVVVDVSHEDPEVKFNWYVDGVEVHNAKTKPREEQYNSTYRVVSVLTVLHQDWLNGKEYKCKVSNKALPAPIEKTISKAKGQPREPQVYTLPPCRDELTKNQVSLWCLVKGFYPSDIAVEWESNGQPENNYKTTPPVLDSDGSFFLYSKLTVDKSRWQQGNVFSCSVMHEALHNHYTQKSLSLSPGGGGGGSGGGGGSGGGGGSEVQLVESGGGLVQPGGSLRLSCAASGFTFNTYAMNWVRQAPGKCLEWVARIRSKYNNYATYYADSVKGRFTISRDDAKNTLYLQMSSLRAEDTAVYYCVRHGNFGNSYVSWFAYWGQGTLVTVKPGGGGEVQLVESGGGEVQPGGSLRLSCAASGFTFSSYHMSWFRQAPGKQRELVATSHHGGTTNYAGSVKGRFTISRDNAKNTVYLQMNTLRAEDTAVYYCKADHGYQGRGYWGQGTLVTVKP chain 2: DKTHTCPPCPAPGGPSVFLFPPKPKDTLMISRTPEVTCVVVDVSHEDPEVKFNWYVDGVEVHNAKTKPREEQYNSTYRVVSVLTVLHQDWLNGKEYKCKVSNKALPAPIEKTISKAKGQPREPQVCTLPPSRDELTKNQVSLSCAVKGFYPSDIAVEWESNGQPENNYKTTPPVLDSDGSFFLVSKLTVDKSRWQQGNVFSCSVMHEALHNRYTQKSLSLSPGGGGGGSGGGGGSGGGGGSQAVVTQEPSLTVSPGGTVTLTCGSSTGAVTTSNYANWVQQKPGQAFRGLIGGTNKRAPGVPARFSGSLLGGKAALTISGAQPEDEADYYCALWYSNHWVFGCGTKLEIKGGGGEVQLLESGGGEVQPGGSLRLSCAASGFSFSINAMGWYRQAPGKRREFVAAIESGRNTVYAESVKGRFTISRDNAKNTVYLQMSSLRAEDTAVYYCGLLKGNRVVSPSVAYWGQGTLVTVKP | binds | – | no binding
